Data on two proteins can be found in publication PMC9721465, “PFK2/FBPase-2 is a potential target for metabolic engineering in the filamentous fungus Myceliophthora thermophila” (Frontiers in Microbiology, 2022).

Substrate in data set [1]: O=P(O)(O)OC[C@H]1O[C@@](CO)(OP(=O)(O)O)[C@@H](O)[C@@H]1O
The experiment in a line: FBPase-2 assay, product/substrate by LC-MS/MS. The class given is biochemical, Thermothelomyces thermophilus. The note with it: pH 7, 30 °C, 1 mM ATP, 2 mM MgCl2, 5 mM KPi. The text has this:
FBPase-2 assay, product/substrate by LC-MS/MS on PFK2-A

Substrate in data set [2]: Nc1ncnc2c1ncn2[C@@H]1O[C@H](COP(=O)(O)OP(=O)(O)OP(=O)(O)O)[C@@H](O)[C@H]1O
Kind of data set: PFK2 assay, fru-2,6-P2 quantified by activation of potato PPi-PFK, spectrophotometric. The class given is biochemical, Thermothelomyces thermophilus. The note with it: co-substrate F6P. The text has this: PFK2 assay, fru-2,6-P2 quantified by activation of potato PPi-PFK, spectrophotometric on PFK2-C

B1: PFK2-A (Thermothelomyces thermophilus ATCC 42464) (protein)
chain: MAPKINGTGVMPEDTRICVVMVGLPARGKSYIAQRAQRYLKWLSIPAKTFNVGNYRRKDAPHPSADFFDTNNAEGERQRRAAANAAVTDMIQWFKTGGVVGILDATNSTKERRKWVLERLSKEGIEVLFVESKCDDEELIMANIRDVKTTSPDYQGQDPEQAALDFRERIRHYEKVYKSINDDNDEDHLTYLKIMNVGKKVFINRIQDYLQSRVVYFLMNLHIRPRSVWLSRHGESEYNLEGRIGGDSLLSHRGEEYARKLPELVRQSVGSDRPLTVWTSTLKRTIATARHLPKHYNQLQWKALDELDAGVCDGLTYQEIADQYPEDFQARDEDKYNYRYRGGESYRDVVIRLEPIIMELERSENILIISHQAVIRCIYAYFMQKPQEESPWVPVPLHTLIKLTPRAYDTLVEKYDAKIKAVSTWRGKGSTAKHEDPTPEGGI
notes: pET32a expression in E. coli Rosetta (DE3), His-Trap purified; cDNA-encoded
Usually Km stands for the concentration of substrate that gives half-maximal velocity. For the protein B1, the Michaelis-Menten constant (Km) in data set [1] worked out at 3810 ± 220 µM.

B2: PFK2-C (Thermothelomyces thermophilus ATCC 42464) (protein)
chain: MPEPLQPSFFHVAASGSDPRPSESACQREDAAVAPQSSSLTLRKLAMSHRMGATASDPSSPTIQAIGDSHHGAETHPLHSVLPSPALTNALKESLRTAGAGQSGPPIGVPNGLHFDSPYSRSISSTAPGSPRIPPVRQNSGSHTPRIRPHATTLNIPGMTRSRASPDGRIPDRDVAAKLVIIMVGLPARGKSYITKKIQRYLSWQQHNTKIFNVGNRRRIAAGMVNPTDASPTNAANGHDVPSQAATILSKGTKGPDIVVEEPTALDLNKGKPVPKMDQSAAFFDPKNEAAAKLREQVALDTLDELLTYLLHQGGAVGILDATNSTIQRRKLLVERIKAREPKLGILFIESVCHDQNLLEANMRLKLFGPDYKDQDPHMALEDFKKRVAAYESAYEPLGKWEEDNDLQYIQMIDVGRKIIQHRLRGFLSGGIVSYLTTFNLSPRQIWITRHGQSEDNRAHRLGGDSELTERGHYYGQALYNFITYKRKEWLIQQKNKIASSNFPPQPGDNTPPYPELFQELDDKNFCVWTSMLKRSIETAEYFEADDDYDVKAWEMLNEMNAGAFEGMTYEEIAEKYPEEFEKRARDKLQYIYPGLGGEGYLQIISRLRDMVREIERITDHVLIIGHRSVCRVLMAYFMDLTRDDIADLDMPLGMLYAIEPKPYGIEFHAYKYNEETFWFDELPNYKPRKTVDRNS
notes: pET28a expression in E. coli (BL21/Rosetta DE3), His-Trap purified; cDNA-encoded
Turning to B2, the Michaelis constant (Km) in data set [2] turned out to be 940 ± 150 µM.
